The target in one data set is Flag-IL28A-D0 (human) (UniProt Q8IZJ0). Kind of data set: SDS-PAGE and Western blot (band of about 70 kDa). (In general: A western blot detects proteins with antibodies after separation by electrophoresis.)
Data set [1] deals with the molecule itself. Kind of data set: SDS-PAGE and Western blot (tetramer and monomer bands).

The source of these data is PMC7090004, “IL28A protein homotetramer structure is required for autolysosomal degradation of HCV-NS5A in vitro” (Cell Death & Disease, 2020).

For the molecule “Flag-IL28A-D0 (from UniProt Q8IZJ0 26-200) (natural protein)”, the stoichiometry N (as a rule, a count of units in the complex or per binding partner) with Flag-IL28A-D0 (human) stood at 4.

B1: Interferon lambda-2 (IL28A), wild type (natural protein, human, UniProt Q8IZJ0 26-200, looked up)
chain: VPVARLHGALPDARGCHIAQFKSLSPQELQAFKRAKDALEESLLLKDCRCHSRLFPRTWDLRQLQVRERPMALEAELALTLKVLEATADTDPALVDVLDQPLHTLHHILSQFRACIQPQPTAGPRTRGRLHHWLYRLQEAPKKESPGCLEASVTFNLFRLLTRDLNCVASGDLCV
notes: also called WT IL28A; IL28A overexpression construct
Regarding B1, the “stoichiometry N” value in data set [1] came out at 4.
